Test results from patent publication US20090011974A1, “Scavenger Receptor B1 (Cla-1) Targeting for the Treatment of Infection, Sepsis and Inflammation” (priority 2002, published 2009).
Values joined by “and” are separate entries in the source; they are usually repeats but may differ in a detail not shown here. Identical values can stand only once. “Also recorded” adds a separate entry of the source. Where a SMILES comes first, the peptide text is derived from it.

Columns and labels:
THP-1 cells = settings: 20 μg/ml
Procedure: Assays for cytokines and lactate dehydrogenase (LD). Interleukins 6 and 8 (IL-6 and IL-8) and tumor-necrosis factor-α (TNF-α) are measured in culture supernatants of THP-1 cells using commercial ELISA kits (Biosource International, USA). LD activity was measured in the supernatants by a Hitachi 917 automated chemistry analyzer (Roche).

CLA-1 [1] = biological target: T1, CLA-1 (Homo sapiens, UniProt Q8WTV0); experiment: Competition for Alexa 488-SAA uptake in CLA-1 overexpressing and mock transfected HeLa cells (FACS); assay type: binding; settings: mock transfected and CLA-1 overexpressing HeLa cells
T1 construct: using the expression plasmid pTRE2 (Clontech, Pal Alto, Calif.), encoding a CLA-1 protein (pTRE2-CLA-1); expressed in transfected cells; host or cells: HeLa (Tet-off) cells (Clontech), stably co-transfected with pTRE2-CLA-1 and pTK-Hyg and selected with hygromycin
T1 sequence (Q8WTV0 1-509 isoform Q8WTV0-2): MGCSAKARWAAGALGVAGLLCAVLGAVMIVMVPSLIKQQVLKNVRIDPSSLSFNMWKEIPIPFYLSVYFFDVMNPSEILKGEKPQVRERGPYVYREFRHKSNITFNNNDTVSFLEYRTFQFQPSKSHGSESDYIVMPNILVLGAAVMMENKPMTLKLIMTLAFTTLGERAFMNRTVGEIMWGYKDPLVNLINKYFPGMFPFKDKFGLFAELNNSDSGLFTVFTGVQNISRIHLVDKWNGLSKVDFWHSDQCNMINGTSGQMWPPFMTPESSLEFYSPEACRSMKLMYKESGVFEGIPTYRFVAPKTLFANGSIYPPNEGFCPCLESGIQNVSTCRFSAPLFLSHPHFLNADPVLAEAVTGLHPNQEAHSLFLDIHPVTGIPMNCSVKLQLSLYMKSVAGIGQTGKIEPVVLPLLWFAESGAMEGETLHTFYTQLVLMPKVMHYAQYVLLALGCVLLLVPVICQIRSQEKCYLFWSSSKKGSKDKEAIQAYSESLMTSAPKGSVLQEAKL
Procedure: Competition experiments. Cells are cultured for 24 hr in serum free DMEM before experiments. […] For KKB-1 anti-CLA-1 blocking experiments, cells are pre-incubated with KKB-1 rabbit anti-serum (non-immune rabbit serum as a negative control) at a dilution of 1:10 followed by ligand addition to a final concentration of 5 μg/ml and a 1-hour incubation. Cell fluorescence was analyzed by FACS analyses.

CLA-1 [2] = biological target: T1, CLA-1; experiment: FACS analysis of Alexa 488-SAA and Alexa 488-HDL uptake in HeLa cells; assay type: cell-based; settings: CLA-1 overexpressing HeLa cells
Procedure: Ligand-uptake experiments. Binding experiments are performed at 37° C. using concentrations between 1.25 and 30 μg/ml. All incubations are performed in DMEM containing 2 mg/ml BSA. After a 2-hr-incubation […], the cells are rinsed with ice-cold PBS and released by a 30-min incubation in EDTA containing Cell stripper (CellGro, USA). Cells are resuspended and added to an equal volume of 4% paraformaldehyde in PBS. Cell fluorescence is analyzed by FACS analyses.

[3] = biological target: T2, CLA-1 (CD36 and LIMPII Analogous-1), human scavenger receptor class B type I (human, UniProt Q8WTV0 1-552); experiment: flow cytometry of Alexa-488 SAA uptake
T2 construct: whole, on cells; Target is CLA-1 on stably transfected HeLa cells, compared with mock-transfected HeLa cells, which carry a low endogenous level of CLA-1; also called SR-BI/CLA-1; human SR-BI
T2 sequence (looked up): T1 sequence (Q8WTV0 1-509 isoform Q8WTV0-2)

CC(C)C[C@H](NC(=O)[C@H](Cc1c[nH]c2ccccc12)NC(=O)[C@H](CC(=O)O)NC(=O)[C@@H]1CCCN1C(=O)[C@H](Cc1ccccc1)NC(=O)[C@H](C)NC(=O)[C@H](CCC(=O)O)NC(=O)[C@H](CCCCN)NC(=O)[C@H](CC(C)C)NC(=O)[C@H](CCCCN)NC(=O)[C@H](CCC(=O)O)NC(=O)[C@H](C)NC(=O)[C@@H](NC(=O)[C@H](CCCCN)NC(=O)[C@H](CC(=O)O)NC(=O)[C@H](Cc1ccc(O)cc1)NC(=O)[C@H](Cc1ccccc1)NC(=O)[C@H](C)NC(=O)[C@H](CCCCN)NC(=O)[C@H](CC(C)C)NC(=O)[C@H](Cc1c[nH]c2ccccc12)NC(=O)[C@@H](N)CC(=O)O)C(C)C)C(=O)N[C@@H](CCCCN)C(=O)N[C@@H](C)C(=O)N[C@@H](Cc1ccccc1)C(=O)N[C@@H](Cc1ccc(O)cc1)C(=O)N[C@@H](CC(=O)O)C(=O)N[C@@H](CCCCN)C(=O)N[C@H](C(=O)N[C@@H](C)C(=O)N[C@@H](CCC(=O)O)C(=O)N[C@@H](CCCCN)C(=O)N[C@@H](CC(C)C)C(=O)N[C@@H](CCCCN)C(=O)N[C@@H](CCC(=O)O)C(=O)N[C@@H](C)C(=O)N[C@@H](Cc1ccccc1)C(=O)O)C(C)C [Peptide L-37PA] (H-DWLKAFYDKVAEKLKEAFPDWLKAFYDKVAEKLKEAF-OH; N-terminus and C-terminus assumed) was tested, and the “toxic effect (LDH release, β-actin expression)” value (THP-1 cells) was “no apparent toxic effect”.

B1: Serum Amyloid A1 (StressGene) (ligand, UniProt P0DJI8 19-122, looked up)
chain: RSFFSFLGEAFDGARDMWRAYSDMREANYIGSDKYFHARGNYDAAKRGPGGAWAAEVITDARENIQRFFGHGAEDSLADQAANEWGRSGKDPNHFRPAGLPEKY
notes: also called SAA; lipid-free SAA
In the case of B1, the “competition with Alexa 488-SAA for CLA-1” value (CLA-1 [1]) is reported as “efficient competitor; also recorded: competed for CLA-1 binding with Alexa 488-SAA”, the “concentration at which SAA uptake plateaus” value (CLA-1 [2]) is reported as 2.5 µg/mL and 2.5 to 5 µg/mL and the “fold increase of uptake over mock transfected HeLa cells” value [3] is reported as greater than 5 fold.
